Literature values as cited in publication PMC12732943.

Biological target: Fibrin (Homo sapiens) (UniProt P02671)

Kd: 302 nM
Substance: GPVI (monomeric) (from UniProt Q9HCN6)
